Here are results for one molecule from patent publication US20230203162A1 (NUMAB THERAPEUTICS, published 2023).

Assay [1] concerns the target T1, human serum albumin (hSA, Sigma-Aldrich A3782) (human, UniProt P02768 25-609). Description: SPR, albumin immobilized on CM5, scFv as analyte, multi-cycle, 1:1 Langmuir, pH 5.5.
The target in assay [2] is T2, cynomolgus monkey serum albumin (cSA, Molecular Innovations CYSA) (cynomolgus monkey). The description is as above.
The target in assay [3] is T3, mouse serum albumin (mSA, Sigma-Aldrich A3559) (mouse, UniProt P07724 25-608). The description is as above.
The target of assay [4] is T1, human serum albumin (hSA, Sigma-Aldrich …). Description: SPR, albumin immobilized on CM5, scFv as analyte, multi-cycle, 1:1 Langmuir, pH 7.4.
Assay [5] concerns the target T2, cynomolgus monkey serum albumin (cSA, …). The assay is described as above.
Assay [6] addresses T3, mouse serum albumin (mSA, Sigma-Aldrich …). The assay is described as above.
Assay [7] shares this target. As to the kind of experiment: SPR, albumin immobilized on CM5, scFv as analyte, 1:1 fit, pH 5.5; biphasic binding corrected with bulk correction.
The target is the same in assay [8]. Description: SPR, albumin immobilized on CM5, scFv as analyte, 1:1 fit, pH 7.4; biphasic binding corrected with bulk correction.

B1: anti-hSA scFv PRO2155 (domain 19-04-A10-sc02) (scFv, V domains shown)
VH: EVQLVESGGGLVQPGGSLRLSCAASGFSLSSYAMNWVRQAPGKGLEWIGHINAGDIAYYATWAKGRFTISRDNSKNTVYLQMNSLRAEDTAVYFCARGAGGFSTGPFKLWGQGTLVTVSS
VL: AFELTQSPSSLSASVGDRVTITCQASESINSRLAWYQQKPGQPPKLLIYDASDLTSGVPSRFSGSGSGTDFTLTISSLQPEDFATYYCQGYGGSSTTTFGGGTKLTVLG
notes: Tested as scFv
Consider B1, for which the Kd in assay [1] is 3.3 nM; in assay [2], 2.3 nM; in assay [4] it was 2.2 nM; in assay [5] it was 1.6 nM; in assay [7], 2.5 nM; in assay [8] it was 9 nM. Also, the koff in assay [1] came out at 0.003 s⁻¹; in assay [2] it was 0.0021 s⁻¹; in assay [3] it was 0.0002 s⁻¹; in assay [4], 0.0012 s⁻¹; in assay [5], 0.00091 s⁻¹; in assay [6], 0.00029 s⁻¹. Moreover, the kon in assay [1] stood at 900000 M⁻¹ s⁻¹; in assay [2] it was 910000 M⁻¹ s⁻¹; in assay [3], 78000 M⁻¹ s⁻¹; in assay [4] it was 550000 M⁻¹ s⁻¹; in assay [5] it was 580000 M⁻¹ s⁻¹; in assay [6] it was 32000 M⁻¹ s⁻¹.
